Experiments:
[1] = target: T1, FGFR-1(IIIc) (Homo sapiens, UniProt P11362); assay: ELISA binding assay; set-up: purchased R&D Systems
Protocol: Recombinant FGFRs (R&D systems) at a concentration of 1 μg/ml in PBS were coated on 96-well plates at room temperature for 2 hrs. The plates were washed 3 times with 0.2% Tween20/PBS, and blocked with 5% milk/PBS for 2 hrs before use. FR1-H7 or FR1-A1 was added to the plate and serially diluted in 0.2% Tween20/PBS. The plate was incubated at room temperature for 2 more hrs. The captured antibodies were detected using an anti-human light chain monoclonal antibody conjugated with […] (Pierce Biotechnology, Rockford, Ill.) solution prepared according to supplier's instructions.

[2] = Body weight, food intake and adipose tissue in db/db mice; type: in vivo; details: 4 mg/kg s.c.
Protocol: The db/db 7 week old mice were injected subcutaneously with 4 mg/kg antibody on a Monday, Wednesday, and Friday schedule with body weights being measured before each injection and on day 7. Food intake was monitored as well on days 1, 2, 3, 4, and 7. The db/db animals were sacrificed on day 7 and their intrascapular brown fat, epididymal white adipose tissue, and inguinal subcutaneous white adipose tissue were sampled and weighed.

[3] = Energy expenditure and body composition in C57 black mice (incl. paired-feeding); type: in vivo
Protocol: To elucidate the mechanism of the weight-loss induced by FGFR antagonistic antibodies, the effect of FR1-H7 on energy expenditure and body composition of mice was studied. […] A paired-feeding experiment was also conducted which food consumption of control antibody treated animals was restrained to exact that of FR1-H7 treated animals (FIG. 27). […] Moreover, body composition (Day 1 and 5) and energy consumption determined for the two groups were mostly indistinguishable.
This study consisted of two stages. In the first stage, female C57 black mice (Charles River Laboratories, Wilmington, Mass.) were randomized into two groups (n=16) and individually housed in a metabolic cage. Both groups of Mice were given hi-carbohydrate content chow and water ad libitum. […] Body composition was determined using NMR on Day 1 and Day 5. Body weight and food consumption were determined daily. Energy expenditure, ambulatory activities, and oxygen consumption and were monitored continuously. RER were calculated based on energy expenditure and oxygen consumption.
In the second stage, both groups of Mice were given water ad libitum, but only 2 g of hi-carbohydrate content chow each animal per day. The amount of food given was determined in the first stage experiment to be the averaged daily food assumption of those animals one day after being treated with FR1-H7 (10 mg/kg body weight, intraperitonaeally). […]

[4] = Repeated-dose study in female athymic nude mice: body weight, food intake, rearing, blood glucose; type: in vivo; details: day 64
[5] = target: T2, FGFR-1c (Homo sapiens, UniProt P11362); assay: BiaCore binding kinetics; details: BiaCore biosensor; read-out: Binding Kinetic (Kd), FGFR-1c
T2 construct: purchased R&D Systems

[6] = target: T3, FGFR-3c (Homo sapiens, UniProt P22607); assay: BiaCore binding kinetics; details: BiaCore kinetic analysis
T3 construct: purchased R&D Systems

[7] = target: T4, FGFR-2c (Homo sapiens, UniProt P21802); assay: BiaCore binding kinetics; details: BiaCore kinetic analysis
T4 construct: purchased R&D Systems

[8] = target: T5, FGFR-3b (Homo sapiens, UniProt P22607); assay: BiaCore binding kinetics; details: BiaCore kinetic analysis
T5 construct: purchased R&D Systems

[9] = target: T1, FGFR-1(IIIc); assay: Cell-based blocking assay (125I-FGF-2 binding to FGFR-1(IIIc) expressing L6 cells); set-up: expressed in transfected cells; host or cells: L6 (ATCC), pBABE retroviral vector; details: at 200 nM antibody
Protocol: An FGFR-1(IIIc) expressing cell line was constructed by retro-viral transfecting L6 (ATCC, Manassas, Va.) using a pBABE vector that has a puromycin resistant gene (Invitrogen). Transfected cells were cultured in 10% FBS, DMEM (Invitrogen) in 6-well tissue culture plates until reaching confluency, Before the blocking experiment, cells were serum starved for 8-24 hrs at 37° C. in DMEM medium that contains 0.1% FBS and 5 μg/ml heparin. Before the addition of any reagents, plates were put on ice for 1 hr to minimize receptor internalization. For binding experiment, iodinated recombinant FGF-2 was added at various concentrations to the wells of the plates. For blocking experiments, serially diluted FR1-H7 antibody was added and incubated with the cells on ice for 1 hr before iodinated recombinant FGF-2 was added to each well to a final concentration of 15 ng/ml. Binding was for 1 hr at 0-4° C., after which time the solutions were aspirated and the plates were washed 5 times with ice-cold PBS. Cells were lyzed with 0.5 ml ice-cold cell lysis buffer for 30 minutes. Radioactivity of the cell lysates was detected using a Wizard 1470 automatic gamma counter (Turku, Finland). Non-specific interaction was determined in a binding experiment in which iodinated FGF-2 was incubated with the cells in presence of 200 fold excess of cold ligand.

T1 sequence (P11362 22-822): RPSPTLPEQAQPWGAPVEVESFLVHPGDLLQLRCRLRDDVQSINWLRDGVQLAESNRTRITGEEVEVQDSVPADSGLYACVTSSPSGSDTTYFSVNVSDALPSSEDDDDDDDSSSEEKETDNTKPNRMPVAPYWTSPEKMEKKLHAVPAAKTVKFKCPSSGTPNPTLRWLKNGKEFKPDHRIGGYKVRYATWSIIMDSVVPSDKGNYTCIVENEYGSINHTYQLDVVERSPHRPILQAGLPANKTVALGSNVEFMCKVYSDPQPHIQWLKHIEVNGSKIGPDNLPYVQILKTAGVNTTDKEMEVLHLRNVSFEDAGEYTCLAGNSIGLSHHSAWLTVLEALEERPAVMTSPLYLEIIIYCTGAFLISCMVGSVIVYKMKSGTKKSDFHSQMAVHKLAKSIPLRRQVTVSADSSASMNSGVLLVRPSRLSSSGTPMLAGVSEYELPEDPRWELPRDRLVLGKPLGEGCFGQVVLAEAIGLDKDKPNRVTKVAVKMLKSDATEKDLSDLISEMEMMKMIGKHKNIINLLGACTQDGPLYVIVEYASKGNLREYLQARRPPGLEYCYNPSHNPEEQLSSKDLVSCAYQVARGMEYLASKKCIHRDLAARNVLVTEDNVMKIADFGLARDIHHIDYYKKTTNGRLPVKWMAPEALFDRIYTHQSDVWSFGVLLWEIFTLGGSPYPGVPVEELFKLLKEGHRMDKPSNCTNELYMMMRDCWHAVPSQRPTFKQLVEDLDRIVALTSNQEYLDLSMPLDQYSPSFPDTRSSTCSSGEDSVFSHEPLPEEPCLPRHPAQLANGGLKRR
T3 sequence (P22607 23-806): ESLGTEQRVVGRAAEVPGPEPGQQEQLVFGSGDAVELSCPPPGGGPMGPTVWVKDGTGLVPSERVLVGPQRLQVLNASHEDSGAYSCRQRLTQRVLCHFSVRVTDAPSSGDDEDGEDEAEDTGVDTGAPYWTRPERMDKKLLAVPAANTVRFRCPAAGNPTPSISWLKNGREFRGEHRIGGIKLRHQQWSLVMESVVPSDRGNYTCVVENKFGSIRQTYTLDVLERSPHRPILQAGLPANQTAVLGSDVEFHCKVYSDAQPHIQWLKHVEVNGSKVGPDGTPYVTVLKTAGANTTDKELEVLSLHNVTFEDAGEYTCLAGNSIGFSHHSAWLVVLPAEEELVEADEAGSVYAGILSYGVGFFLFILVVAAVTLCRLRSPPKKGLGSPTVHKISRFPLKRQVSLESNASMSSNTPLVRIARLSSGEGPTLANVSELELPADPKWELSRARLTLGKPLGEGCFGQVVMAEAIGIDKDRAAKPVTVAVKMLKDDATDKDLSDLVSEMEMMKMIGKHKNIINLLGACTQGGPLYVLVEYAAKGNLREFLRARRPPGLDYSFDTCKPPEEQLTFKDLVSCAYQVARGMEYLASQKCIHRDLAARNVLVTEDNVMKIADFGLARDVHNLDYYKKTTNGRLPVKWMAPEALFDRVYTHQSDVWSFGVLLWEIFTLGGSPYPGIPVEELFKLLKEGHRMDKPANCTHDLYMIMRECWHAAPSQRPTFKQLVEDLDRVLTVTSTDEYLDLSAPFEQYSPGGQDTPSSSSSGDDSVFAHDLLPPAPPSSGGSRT
T5 sequence (P22607 23-808 isoform P22607-2 limits assumed): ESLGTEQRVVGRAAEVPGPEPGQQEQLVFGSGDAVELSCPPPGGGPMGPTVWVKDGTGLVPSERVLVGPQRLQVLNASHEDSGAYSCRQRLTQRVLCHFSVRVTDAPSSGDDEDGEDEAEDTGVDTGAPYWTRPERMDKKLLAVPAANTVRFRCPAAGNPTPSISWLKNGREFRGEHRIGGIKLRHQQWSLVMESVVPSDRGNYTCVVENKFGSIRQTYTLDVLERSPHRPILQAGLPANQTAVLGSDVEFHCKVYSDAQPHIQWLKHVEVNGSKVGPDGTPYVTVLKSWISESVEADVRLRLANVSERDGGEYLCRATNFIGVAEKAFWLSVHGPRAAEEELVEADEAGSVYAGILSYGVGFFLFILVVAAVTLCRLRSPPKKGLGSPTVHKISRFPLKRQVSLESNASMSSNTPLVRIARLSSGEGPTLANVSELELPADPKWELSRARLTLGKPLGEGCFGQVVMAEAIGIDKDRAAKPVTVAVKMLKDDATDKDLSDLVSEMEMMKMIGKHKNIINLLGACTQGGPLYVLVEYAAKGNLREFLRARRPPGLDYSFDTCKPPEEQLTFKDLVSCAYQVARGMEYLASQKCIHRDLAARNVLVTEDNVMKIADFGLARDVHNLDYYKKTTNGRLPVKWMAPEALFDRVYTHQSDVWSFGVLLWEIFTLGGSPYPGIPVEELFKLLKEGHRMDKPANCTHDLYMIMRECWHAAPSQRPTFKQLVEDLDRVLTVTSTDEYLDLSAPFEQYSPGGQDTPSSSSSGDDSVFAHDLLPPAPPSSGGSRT
T4 sequence (P21802 22-821): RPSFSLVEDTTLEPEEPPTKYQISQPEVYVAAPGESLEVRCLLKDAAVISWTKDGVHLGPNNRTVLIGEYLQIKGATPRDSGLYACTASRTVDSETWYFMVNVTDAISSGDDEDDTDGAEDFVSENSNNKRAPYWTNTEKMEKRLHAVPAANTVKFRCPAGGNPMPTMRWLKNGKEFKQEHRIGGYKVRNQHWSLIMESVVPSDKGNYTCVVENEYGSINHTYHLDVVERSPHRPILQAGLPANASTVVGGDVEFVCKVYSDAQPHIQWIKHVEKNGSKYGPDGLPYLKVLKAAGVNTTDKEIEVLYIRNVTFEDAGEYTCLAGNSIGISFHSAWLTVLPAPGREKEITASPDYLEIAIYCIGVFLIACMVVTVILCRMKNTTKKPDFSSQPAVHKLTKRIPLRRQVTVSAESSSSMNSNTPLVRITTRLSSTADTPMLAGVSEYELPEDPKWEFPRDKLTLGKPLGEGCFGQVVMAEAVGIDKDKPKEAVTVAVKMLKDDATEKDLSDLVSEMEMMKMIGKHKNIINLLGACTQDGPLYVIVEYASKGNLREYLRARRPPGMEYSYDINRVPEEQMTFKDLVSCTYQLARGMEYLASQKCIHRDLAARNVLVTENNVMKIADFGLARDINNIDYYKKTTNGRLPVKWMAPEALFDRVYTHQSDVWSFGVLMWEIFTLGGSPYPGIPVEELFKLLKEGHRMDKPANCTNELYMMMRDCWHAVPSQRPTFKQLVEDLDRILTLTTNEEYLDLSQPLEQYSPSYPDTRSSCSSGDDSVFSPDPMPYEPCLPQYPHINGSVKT
T2 sequence (P11362 22-822): as the sequence (P11362 22-822) above

B1: FR1-H7: human monoclonal antibody from phage Fab library, specific for FGFR-1(IIIb) and/or FGFR-1(IIIc), and/or FGFR-4(IIIc); VH/VL SEQ ID NOS:7, 8 (antibody, listed as Homo sapiens)
VH: MAEVQLVQSGAEVKKPGASVKVSCKVSGYTFTDYYMHWVQQAPGKGLEWMGLVDPEDGETIYAEKFQGRVTITADTSTDTAYMELSSLRSEDTAVYYCARDDYMDVWGKGTLVTVSSASTKGP
VL: LETTLTQSPDTLSLSPGEGATLSCRASQSVSGSALAWYQQKPGQAPRLLIYDASSRATGVPDRFSGSGSGADFSLTISRLEPEDFAVYSCQQYGSSPLTFGPGTKVDVKRTVAAPSVFIFPPSDEQLKSGTASVVCLLNNFYPREAKVQWKVD
[1]
  binding to FGFR-1(IIIc): strong affinities
[2]; 7-day period
  food intakes: gradual reduction
[2]; Day 7
  weight reduction of the total body weight: approximately 10%
[2]; day 7
  weight of intrascapular brown fat tissue: significant reduction
  weights of epididymal white adipose tissue and inguinal subcutaneous white adipose tissue: changed little
[3]; 10 mg/kg i.p. Day 2 and Day 4, food ad libitum
  body weight, food intake, muscle and fat mass, energy expenditure and Respiratory Exchange Ratio (RER) compared to the controls: decreases
[3]; 10 mg/kg i.p., paired-feeding, 5-day period
  weight loss versus pair-fed control antibody treated animals: identical weight-loss trajectories
[4]
  non-fasted blood glucose after weight recovery: restored to normal range
[5]
  Kd: 0.04 nM
[6]
  Kd: > 1000 nM
[7]
  Kd: > 1000 nM
[8]
  Kd: > 1000 nM
[9]
  blocking of specific 125I-FGF-2 binding to the cells: near completion

Source: patent US8263074B2, “Fibroblast growth factor receptor-1 inhibitors and methods of treatment thereof” (ImClone LLC, priority 2003, dated 2012)
